According to patent US20180312587A1:
Values belong to the substance of their own block, whether it stands above or below them.

Tests used:
[1] = molecular target: human SIRPα variant 2 (human) (UniProt P78324); assay: CELISA, CHO-K1 transfectants; extrapolated
[2] = molecular target: human SIRPα variant 1 (human) (UniProt P78324); assay: CELISA, CHO-K1 transfectants; extrapolated
hSIRPαV1(P74A) (human) [3] = molecular target: hSIRPαV1(P74A) (human) (UniProt P78324); assay: CELISA, CHO-K1 transfectants
Sequence of hSIRPαV1(P74A) (human) (P78324 31-504 P74A limits assumed): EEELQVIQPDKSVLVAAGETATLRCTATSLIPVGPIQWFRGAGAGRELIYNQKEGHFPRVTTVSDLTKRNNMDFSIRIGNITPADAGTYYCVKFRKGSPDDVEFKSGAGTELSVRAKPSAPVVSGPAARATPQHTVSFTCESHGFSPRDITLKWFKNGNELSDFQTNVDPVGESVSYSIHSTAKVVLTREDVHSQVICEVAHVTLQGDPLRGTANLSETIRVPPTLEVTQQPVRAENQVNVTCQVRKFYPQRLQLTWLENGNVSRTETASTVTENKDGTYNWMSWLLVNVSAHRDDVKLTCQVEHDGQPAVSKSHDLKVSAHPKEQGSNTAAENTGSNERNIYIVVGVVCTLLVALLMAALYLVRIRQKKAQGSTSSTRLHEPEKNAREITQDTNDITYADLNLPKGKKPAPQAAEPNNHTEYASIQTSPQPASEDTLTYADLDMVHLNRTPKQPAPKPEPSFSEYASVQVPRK

[4] = molecular target: human SIRPα variant 1 (human) (UniProt P78324); assay: CELISA, CHO-K1 transfectants
human SIRPγ (human) [5] = molecular target: human SIRPγ (human) (UniProt Q9P1W8); assay: CELISA, CHO-K1 transfectants; extrapolated
Sequence of human SIRPγ (human) (Q9P1W8 29-387 limits assumed): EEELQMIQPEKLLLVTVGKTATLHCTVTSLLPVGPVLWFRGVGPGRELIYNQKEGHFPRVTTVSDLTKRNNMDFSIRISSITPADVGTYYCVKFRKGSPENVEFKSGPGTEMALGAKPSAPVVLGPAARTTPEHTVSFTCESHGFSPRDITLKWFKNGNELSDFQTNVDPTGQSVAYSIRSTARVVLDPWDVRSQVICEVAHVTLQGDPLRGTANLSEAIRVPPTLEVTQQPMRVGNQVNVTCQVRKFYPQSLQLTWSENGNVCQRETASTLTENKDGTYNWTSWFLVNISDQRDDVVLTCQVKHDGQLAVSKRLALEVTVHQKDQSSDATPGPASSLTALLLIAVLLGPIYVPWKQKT

human SIRPβ1 (human) [6] = molecular target: human SIRPβ1 (human) (UniProt O00241); assay: CELISA, CHO-K1 transfectants; extrapolated
Sequence of human SIRPβ1 (human) (O00241 30-398 limits assumed): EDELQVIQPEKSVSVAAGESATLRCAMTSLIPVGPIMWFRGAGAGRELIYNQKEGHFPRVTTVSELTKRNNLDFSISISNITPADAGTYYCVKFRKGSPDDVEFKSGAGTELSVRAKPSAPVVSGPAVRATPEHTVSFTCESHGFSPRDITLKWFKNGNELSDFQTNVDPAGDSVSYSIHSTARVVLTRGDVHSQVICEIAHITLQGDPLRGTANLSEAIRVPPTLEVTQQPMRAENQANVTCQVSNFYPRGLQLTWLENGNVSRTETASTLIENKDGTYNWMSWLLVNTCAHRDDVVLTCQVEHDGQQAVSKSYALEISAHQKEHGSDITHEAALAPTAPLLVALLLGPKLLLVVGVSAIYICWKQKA

[7] = molecular target: hSIRPβ1 transcript variant 3/hSIRPβL (human) (UniProt Q5TFQ8); assay: CELISA, CHO-K1 transfectants; extrapolated
Sequence of hSIRPβ1 transcript variant 3/hSIRPβL (human) (Q5TFQ8 30-398 limits assumed, change not shown): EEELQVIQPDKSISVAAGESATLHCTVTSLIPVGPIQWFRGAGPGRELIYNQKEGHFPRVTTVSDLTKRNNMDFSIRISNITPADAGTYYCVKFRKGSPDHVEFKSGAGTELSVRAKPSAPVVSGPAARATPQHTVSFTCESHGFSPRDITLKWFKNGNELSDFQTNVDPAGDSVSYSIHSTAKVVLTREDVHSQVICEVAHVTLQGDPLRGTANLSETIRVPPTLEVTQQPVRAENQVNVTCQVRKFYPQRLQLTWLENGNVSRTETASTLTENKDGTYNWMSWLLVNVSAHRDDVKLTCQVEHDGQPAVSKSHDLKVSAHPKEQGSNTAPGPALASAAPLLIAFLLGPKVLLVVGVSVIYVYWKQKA

human SIRPβ1 (human) [8] = molecular target: human SIRPβ1 (human) (UniProt O00241); assay: CELISA, CHO-K1 transfectants
hSIRPαV1(P74A) (human) [9] = molecular target: hSIRPαV1(P74A) (human) (UniProt P78324); assay: CELISA, CHO-K1 transfectants, point mutant study
human SIRPβ1 (human) [10] = molecular target: human SIRPβ1 (human) (UniProt O00241); assay: CELISA, CHO-K1 transfectants, point mutant study
[11] = molecular target: human SIRPα variant 1 (human) (UniProt P78324); assay: CELISA, CHO-K1 transfectants, point mutant study
hSIRPα-VαC1αC2β (human) = hSIRPα-VαC1αC2β (human) (UniProt P78324); assay: CELISA, CHO-K1 transfectants, domain exchange study
[12] = molecular target: human SIRPα variant 2 (human) (UniProt P78324); assay: as above
hSIRPα-VβC1αC2α (human) = hSIRPα-VβC1αC2α (human) (UniProt P78324); assay: as above
Sequence of hSIRPα-VβC1αC2α (human) (P78324 other isoform, or with tags, fused parts or gaps limits assumed): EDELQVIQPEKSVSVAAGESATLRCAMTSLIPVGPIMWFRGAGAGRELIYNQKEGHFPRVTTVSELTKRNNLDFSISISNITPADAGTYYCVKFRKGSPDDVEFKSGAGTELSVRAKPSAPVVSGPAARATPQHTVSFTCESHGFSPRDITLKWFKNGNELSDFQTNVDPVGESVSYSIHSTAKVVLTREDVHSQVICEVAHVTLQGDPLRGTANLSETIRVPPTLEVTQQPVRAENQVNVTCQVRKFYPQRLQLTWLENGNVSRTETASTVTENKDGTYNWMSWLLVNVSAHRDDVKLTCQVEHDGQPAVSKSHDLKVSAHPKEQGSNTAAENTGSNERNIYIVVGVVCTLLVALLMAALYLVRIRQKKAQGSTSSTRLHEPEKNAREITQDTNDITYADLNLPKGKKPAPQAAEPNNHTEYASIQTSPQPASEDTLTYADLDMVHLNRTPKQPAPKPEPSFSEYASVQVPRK

human SIRPβ1 (human) [13] = molecular target: human SIRPβ1 (human) (UniProt O00241); assay: as above
hSIRPα-VαC1βC2α (human) = hSIRPα-VαC1βC2α (human) (UniProt P78324); assay: as above
[14] = molecular target: human SIRPα variant 1 (human) (UniProt P78324); assay: as above
[15] = molecular target: hSIRPαV9 (NA18943_V9) (human) (UniProt P78324); assay: CELISA, CHO-K1 transfectants; average of two experiments
[16] = molecular target: hSIRPαV3 (NA07056_V3) (human) (UniProt P78324); assay: as above
[17] = molecular target: hSIRPαV8 (NA18570_V8) (human) (UniProt P78324); assay: as above
Sequence of hSIRPαV8 (NA18570_V8) (human) (P78324 other isoform, or with tags, fused parts or gaps limits assumed): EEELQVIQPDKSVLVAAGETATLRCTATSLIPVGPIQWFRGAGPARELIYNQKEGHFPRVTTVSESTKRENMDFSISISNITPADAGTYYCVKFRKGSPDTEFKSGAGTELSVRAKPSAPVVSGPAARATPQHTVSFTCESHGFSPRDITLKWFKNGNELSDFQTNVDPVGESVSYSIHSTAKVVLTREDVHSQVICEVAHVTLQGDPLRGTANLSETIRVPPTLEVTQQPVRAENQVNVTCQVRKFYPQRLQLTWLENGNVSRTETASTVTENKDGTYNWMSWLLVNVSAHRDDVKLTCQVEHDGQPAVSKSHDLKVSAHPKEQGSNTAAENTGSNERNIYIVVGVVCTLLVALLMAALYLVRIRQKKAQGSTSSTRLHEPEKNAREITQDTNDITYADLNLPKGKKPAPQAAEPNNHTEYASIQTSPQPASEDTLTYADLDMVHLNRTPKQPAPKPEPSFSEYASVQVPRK

[18] = molecular target: hSIRPαV5 (NA18502_V5) (human) (UniProt P78324); assay: as above
[19] = molecular target: hSIRPαV6 (NA18507_V6) (human) (UniProt P78324); assay: as above
[20] = molecular target: human SIRPα variant 2 (human) (UniProt P78324); assay: as above
[21] = molecular target: hSIRPαV4 (NA11832_V4) (human) (UniProt P78324); assay: as above
Sequence of hSIRPαV4 (NA11832_V4) (human) (P78324 other isoform, or with tags, fused parts or gaps limits assumed): as the sequence (P78324 31-504 P74A limits assumed) above, with E3G, L14S, T20S, T22I, R24H, A44P counted along it

[22] = molecular target: human SIRPα variant 1 (human) (UniProt P78324); assay: as above
hSIRP-VβC1βC2γ (human) = hSIRP-VβC1βC2γ (human) (UniProt O00241); assay: CELISA, CHO-K1 transfectants, domain exchange study
Sequence of hSIRP-VβC1βC2γ (human) (O00241 other isoform, or with tags, fused parts or gaps limits assumed): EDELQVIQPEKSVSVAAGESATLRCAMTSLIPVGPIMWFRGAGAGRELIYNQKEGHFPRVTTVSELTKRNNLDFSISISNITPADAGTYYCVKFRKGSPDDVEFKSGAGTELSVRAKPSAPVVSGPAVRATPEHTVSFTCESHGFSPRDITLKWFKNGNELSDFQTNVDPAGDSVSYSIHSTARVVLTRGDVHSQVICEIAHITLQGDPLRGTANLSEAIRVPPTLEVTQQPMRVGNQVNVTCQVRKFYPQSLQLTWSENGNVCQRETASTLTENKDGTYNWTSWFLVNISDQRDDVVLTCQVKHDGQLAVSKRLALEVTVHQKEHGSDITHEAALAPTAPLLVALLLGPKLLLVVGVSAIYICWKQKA

[23] = molecular target: human SIRPα variant 2 (human) (UniProt P78324); assay: as above; remark: listed apart in the source
human SIRPβ1 (human) [24] = molecular target: human SIRPβ1 (human) (UniProt O00241); assay: as above; remark: listed apart in the source
hSIRP-VγC1βC2β (human) = hSIRP-VγC1βC2β (human) (UniProt O00241); assay: as above
hSIRP-VβC1γC2β (human) = hSIRP-VβC1γC2β (human) (UniProt O00241); assay: as above
Sequence of hSIRP-VβC1γC2β (human) (O00241 other isoform, or with tags, fused parts or gaps limits assumed): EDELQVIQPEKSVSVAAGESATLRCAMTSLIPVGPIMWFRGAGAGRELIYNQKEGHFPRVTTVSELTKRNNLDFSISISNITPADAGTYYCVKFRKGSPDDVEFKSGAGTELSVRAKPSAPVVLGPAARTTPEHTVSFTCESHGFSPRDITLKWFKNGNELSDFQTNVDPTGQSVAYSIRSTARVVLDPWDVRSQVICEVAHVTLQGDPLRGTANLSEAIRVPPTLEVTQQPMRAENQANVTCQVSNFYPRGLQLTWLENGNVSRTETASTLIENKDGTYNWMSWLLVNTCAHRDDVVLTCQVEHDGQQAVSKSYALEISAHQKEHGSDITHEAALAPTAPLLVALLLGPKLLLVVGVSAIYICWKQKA

[25] = molecular target: human SIRPα variant 1 (human) (UniProt P78324); assay: as above; remark: listed apart in the source
hSIRPαV1(P74A) (human) [26] = molecular target: hSIRPαV1(P74A) (human) (UniProt P78324); assay: CELISA, CHO-K1 transfectants, point mutant study; remark: listed apart in the source
[27] = molecular target: human SIRPα variant 1 (human) (UniProt P78324); assay: CELISA, CHO-K1 transfectants, point mutant study; remark: listed apart in the source
human SIRPγ (human) [28] = molecular target: human SIRPγ (human) (UniProt Q9P1W8); assay: CELISA, CHO-K1 transfectants
[29] = molecular target: human SIRPα variant 2 (human) (UniProt P78324); assay: CELISA, CHO-K1 transfectants
human SIRPβ1 (human) [30] = molecular target: human SIRPβ1 (human) (UniProt O00241); assay: CELISA, CHO-K1 transfectants; remark: listed apart in the source
[31] = molecular target: human SIRPα variant 1 (human) (UniProt P78324); assay: CELISA, CHO-K1 transfectants; remark: listed apart in the source
[32] = molecular target: hSIRPβ1 transcript variant 3/hSIRPβL (human) (UniProt Q5TFQ8); assay: CELISA, CHO-K1 transfectants
human SIRPγ (human) [33] = molecular target: human SIRPγ (human) (UniProt Q9P1W8); assay: CELISA, CHO-K1 transfectants; n = 1
[34] = molecular target: human SIRPα variant 2 (human) (UniProt P78324); assay: CELISA, CHO-K1 transfectants; n = 1
human SIRPβ1 (human) [35] = molecular target: human SIRPβ1 (human) (UniProt O00241); assay: CELISA, CHO-K1 transfectants; n = 1
[36] = molecular target: human SIRPα variant 1 (human) (UniProt P78324); assay: CELISA, CHO-K1 transfectants; n = 1

Sequence of human SIRPα variant 2 (human) (P78324 other isoform, or with tags, fused parts or gaps mutant limits assumed): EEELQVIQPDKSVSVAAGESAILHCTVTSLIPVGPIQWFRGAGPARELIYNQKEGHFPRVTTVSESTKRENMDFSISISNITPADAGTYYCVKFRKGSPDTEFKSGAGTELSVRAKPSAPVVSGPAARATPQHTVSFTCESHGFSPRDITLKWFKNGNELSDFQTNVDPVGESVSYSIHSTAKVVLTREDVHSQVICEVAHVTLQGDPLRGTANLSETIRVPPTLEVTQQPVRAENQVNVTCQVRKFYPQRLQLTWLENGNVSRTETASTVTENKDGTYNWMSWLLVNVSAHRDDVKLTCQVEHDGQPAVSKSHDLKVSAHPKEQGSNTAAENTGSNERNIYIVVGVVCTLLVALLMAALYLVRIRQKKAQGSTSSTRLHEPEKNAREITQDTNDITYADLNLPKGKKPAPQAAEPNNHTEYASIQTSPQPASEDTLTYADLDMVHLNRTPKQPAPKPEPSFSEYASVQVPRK
Sequence of human SIRPα variant 1 (human) (P78324 31-504 limits assumed, stated change not applied): as the sequence (P78324 31-504 P74A limits assumed) above, with A44P counted along it

- EC50 [1]: 8.76 nM
- EC50 [2]: 18.7 nM
- EC50 (hSIRPαV1(P74A) (human) [3]): > 122 nM
- EC50 [4]: > 6.41 nM
Substance: anti-hSIRPα (clone D6I3M) (antibody)

- EC50 [1]: 2.45 nM
- EC50 (hSIRPαV1(P74A) (human) [3]): > 2 nM
- EC50 [4]: > 1.17 nM
Substance: anti-hSIRPα (clone EPR16264) (antibody)

- EC50 (human SIRPγ (human) [5]): 3.21 nM
- EC50 [1]: 3.27 nM
- EC50 (human SIRPβ1 (human) [6]): 4.53 nM
- EC50 [2]: 5.24 nM
- EC50 [7]: 2.15 nM
- EC50 (hSIRPαV1(P74A) (human) [3]): > 4.79 nM
- EC50 (human SIRPβ1 (human) [8]): > 3.08 nM
- EC50 [4]: > 3.66 nM
Substance: anti-hSIRPα (clone REA144) (antibody)

- EC50 (hSIRPαV1(P74A) (human) [9]): 0.15 nM
- EC50 (human SIRPβ1 (human) [10]): 0.156 nM
- EC50 [11]: 0.164 nM
- EC50 (hSIRPα-VαC1αC2β (human)): 0.127 nM
- EC50 [12]: 0.084 nM
- EC50 (hSIRPα-VβC1αC2α (human)): 0.121 nM
- EC50 (human SIRPβ1 (human) [13]): 0.18 nM
- EC50 (hSIRPα-VαC1βC2α (human)): 0.135 nM
- EC50 [14]: 0.117 nM
- EC50 [15]: 0.26 nM
- EC50 [16]: 0.226 nM
- EC50 [17]: 0.3 nM
- EC50 [18]: 0.276 nM
- EC50 [19]: 0.098 nM
- EC50 [20]: 0.2 nM
- EC50 [21]: 0.256 nM
- EC50 [22]: 0.327 nM
- EC50 (hSIRP-VβC1βC2γ (human)): 0.231 nM
- EC50 [23]: 0.224 nM
- EC50 (human SIRPβ1 (human) [24]): 0.249 nM
- EC50 (hSIRP-VγC1βC2β (human)): 0.287 nM
- EC50 (hSIRP-VβC1γC2β (human)): 0.309 nM
- EC50 [25]: 0.35 nM
- EC50 (hSIRPαV1(P74A) (human) [3]): 0.207 nM
- EC50 (human SIRPβ1 (human) [8]): 0.105 nM
- EC50 [4]: 0.156 nM
- EC50 (hSIRPαV1(P74A) (human) [26]): 0.149 nM
- EC50 [27]: 0.163 nM
- EC50 (human SIRPγ (human) [28]): 0.2 nM
- EC50 [29]: 0.186 nM
- EC50 (human SIRPβ1 (human) [30]): 0.185 nM
- EC50 [31]: 0.372 nM
- EC50 [32]: 0.122 nM
- EC50 (human SIRPγ (human) [33]): 0.168 nM
- EC50 [34]: 0.2 nM
- EC50 (human SIRPβ1 (human) [35]): 0.192 nM
- EC50 [36]: 0.304 nM
Substance: anti-hSIRPα (clone SE5A5) (antibody)

- EC50 [2]: 1.27 nM
- EC50 [7]: 26.8 nM
- EC50 (hSIRPαV1(P74A) (human) [3]): > 6.14 nM
- EC50 [4]: > 7.01 nM
- EC50 (human SIRPγ (human) [28]): 1.52 nM
- EC50 [29]: 0.3 nM
Substance: anti-hSIRPα (clone SE7C2) (antibody)

- EC50 (human SIRPγ (human) [33]): 0.265 nM
Substance: anti-hSIRPγ (clone LSB2.20) (antibody)
